Molecular target: T1, rhNotch2-Fc (human, UniProt Q04721 26-530)
T1 construct: also called human Notch2 protein; R&D Cat. No. 3735-NT-050
T1 sequence (looked up): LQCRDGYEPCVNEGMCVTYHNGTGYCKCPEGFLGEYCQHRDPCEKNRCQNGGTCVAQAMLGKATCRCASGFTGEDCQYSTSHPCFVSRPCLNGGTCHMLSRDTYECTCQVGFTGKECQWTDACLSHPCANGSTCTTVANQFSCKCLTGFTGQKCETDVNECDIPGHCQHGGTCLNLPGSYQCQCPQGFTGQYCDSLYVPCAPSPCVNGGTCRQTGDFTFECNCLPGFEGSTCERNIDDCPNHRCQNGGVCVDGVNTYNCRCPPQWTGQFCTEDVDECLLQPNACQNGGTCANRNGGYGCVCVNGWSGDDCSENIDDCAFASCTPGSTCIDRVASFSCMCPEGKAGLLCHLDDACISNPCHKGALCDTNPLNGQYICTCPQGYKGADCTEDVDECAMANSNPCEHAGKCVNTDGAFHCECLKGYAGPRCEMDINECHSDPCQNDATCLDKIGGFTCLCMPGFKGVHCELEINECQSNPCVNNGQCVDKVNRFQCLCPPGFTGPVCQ
Test: BLI (Octet QK): rhNotch2-Fc loaded on anti-human-Fc sensors, then antibody 4F11 in solution
Method: Antibody 4F11 was tested for binding to human Notch1, human Notch2, or human Notch3 proteins. Binding measurements were made by biolayer interferometry (BLI), using a FortéBio Octet® QK instrument (FortéBio, Menlo Park, Calif.). Anti-human-Fc sensors were soaked in PBS containing 1 mg/ml BSA for five minutes prior to binding of antibodies. Then the following proteins (400 nM, in PBS containing 1 mg/ml BSA) were allowed to bind to the sensors: rhNotch1-Fc (R&D Systems, Minneapolis, Minn.; Cat. No. 3647-TK-050), rhNotch2-Fc (R&D Cat. No. 3735-NT-050), rhNotch3-Fc (R&D Cat. No. 1559-NT-050), or rmNotch3-Fc (R&D Cat. No. 1308-NT-050). Notch protein bound sensors were immersed in antibody solution (50 μg/ml) to allow binding of antibody to the Notch protein. Binding was detected by shifts in the interference pattern.

B1: antibody 4F11 (murine monoclonal anti-human Notch3) (antibody, mouse IgG1, kappa, V domains shown)
VH: EVQLVESGGGLVKPGGSLKLSCAASGFAFSSYDMSWVRQTPEKRLEWVAYISRGGGSTYYPDTVKGRFTISRDNAKNTLYLQMSSLKSEDTAMYYCGRHATTAYWYFDVWGAGTTVTVSS
VL: DVVMTQTPLSLPVSLGDQASISCRSSQSLVHTNGNTYLHWYLQKPGQSPKLLIYKVSNRFSGVPDRFSGSGSGTDFTLKISRVEAEDLGVYFCSQSTHVPWTFGGGTKLEIKR
notes: Mouse IgG1 kappa purified from hybridoma; also called mu4F11; murine 4F11
Question: Does B1 bind?
Answer: Result: no binding

From patent US20180230213A1 (AVEO PHARMACEUTICALS, published 2018)
